Laboratory results reported in patent US20250197513A1 (University of Texas, published 2025).
Substitutions are numbered along the chain they refer to.

T1: recombinant OSMR protein (Sino Biologicals, 11226-H08H), extracellular domain of OSMR (UniProt Q99650 28-740)
T1 construct: extracellular domain; also called OSMR antigen
T1 sequence (looked up): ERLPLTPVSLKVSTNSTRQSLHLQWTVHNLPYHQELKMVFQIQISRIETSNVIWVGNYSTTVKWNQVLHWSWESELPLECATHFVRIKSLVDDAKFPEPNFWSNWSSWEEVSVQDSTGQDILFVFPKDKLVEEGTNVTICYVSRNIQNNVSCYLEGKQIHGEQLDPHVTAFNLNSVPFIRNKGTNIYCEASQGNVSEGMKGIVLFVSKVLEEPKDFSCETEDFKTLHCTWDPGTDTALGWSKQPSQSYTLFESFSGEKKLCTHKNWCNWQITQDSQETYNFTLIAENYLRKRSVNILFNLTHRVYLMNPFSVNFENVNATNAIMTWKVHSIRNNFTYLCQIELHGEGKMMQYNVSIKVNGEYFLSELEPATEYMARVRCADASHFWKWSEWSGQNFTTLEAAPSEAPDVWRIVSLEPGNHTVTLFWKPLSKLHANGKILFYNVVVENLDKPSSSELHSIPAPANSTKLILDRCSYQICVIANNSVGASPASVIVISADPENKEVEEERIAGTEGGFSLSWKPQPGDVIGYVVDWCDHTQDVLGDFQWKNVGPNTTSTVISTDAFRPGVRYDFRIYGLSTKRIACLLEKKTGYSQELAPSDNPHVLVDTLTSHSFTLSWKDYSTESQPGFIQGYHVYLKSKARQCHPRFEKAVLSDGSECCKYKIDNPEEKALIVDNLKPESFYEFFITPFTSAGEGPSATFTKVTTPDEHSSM

B1: B05 monoclonal antibody (antibody, V domains shown)
VH: QVQLVESGGGVVRPGGSLRLSCAASGFTFDDYGMSWVRQAPGKGLEWVSGINWNGGSTGYADSVKGRFTISRDNAKNSLYLQMNSLRAEDTALYHCARVNYDSSGLRGAFDIWGQGTTVTVSS
VL: AIQLTQSPSSLSASVGDRVTITCQASQDISNYLNWYQQKPGKAPKLLIYDASNLETGVPSRFSGSGSGTDFTFTISSLQPEDIATYYCQQYDNLPTFGQGTRLEIK
notes: also called B05 mAb
B2: B03 monoclonal antibody (antibody, V domains shown)
VH: B1 VH with T118M, T120I
VL: DIVMTQSPSSLSASVGDRVTITCQASQDISNYLNWYQQKPGKAPKLLIYDASNLETGVPSRFSGSGSGTDFTFTISSLQPEDIATYYCQQYDNLPITFGQGTRLEIK
notes: also called B03 mAb
B3: B07 monoclonal antibody (antibody, V domains shown)
VH: B1 VH with T118M
VL: NIQMTQSPSSLSASVGDRVTITCQASQYISNSLNWYQQKPGKAPNLLLYDATNLEPGVPSRFSGSGSRTDFTLTISSLQPEDIATYYCQQYHNLPPTFGQGTRLEIK
notes: also called B07 mAb
B4: B16 monoclonal antibody (antibody, V domains shown)
VH: B1 VH with Q3E
VL: B1 VL with A1D, I2V, L4M
notes: also called B016; B16 mAb
B5: B06 monoclonal antibody (antibody, V domains shown)
VH: QVQLVESGGGLVQPGRSLRLSCAASGFTFDDYAMHWVRQAPGKGLEWVSGISWNSGSIGYADSVKGRFTISRDNAKNSLYLQMNSLRAEDTALYYCAKDITSSGWYWFDYWGQGTLVTVSS
VL: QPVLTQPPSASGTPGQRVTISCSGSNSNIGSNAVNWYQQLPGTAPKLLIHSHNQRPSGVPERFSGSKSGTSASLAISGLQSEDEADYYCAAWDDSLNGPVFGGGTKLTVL
notes: also called B06 mAb
B6: H16 monoclonal antibody (antibody, V domains shown)
VH: QVQLLQSGAEVKKPGSSVKVSCKASGGTFSSYAISWVRQAPGQGLEWMGGIIPIFGTANYAQKFQGRVTITADESTSTAYMELSSLRSEDTAVYYCASSYYGSGTTWFDPWGQGTLVTVSS
VL: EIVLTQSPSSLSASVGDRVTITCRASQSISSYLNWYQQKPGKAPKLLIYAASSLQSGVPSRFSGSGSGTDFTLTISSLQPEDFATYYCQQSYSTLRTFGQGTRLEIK
notes: also called H16 mAb
B7: B19 monoclonal antibody (antibody, V domains shown)
VH: QVELVESGGGLVQPGRSLRLSCAASGFTFDDYAMHWVRQAPGKGLEWVSGISWNSGSIGYADSVKGRFTISRDNAKNSLYLQMNSLRAEDTALYYCAKDIGVYYYGMDVWGQGTTVSVSS
VL: QSALTQPPSASGTPGQKVTISCSGSSSNIGSSPVNWYQQFPGPAPKLLIHSNNQRPSGVPDRFSGSKSGTSASLAISGLQSDDEADYYCAAWDDSLNAYVFGTGTKVTVL
notes: also called B19 mAb
B8: B12 monoclonal antibody (antibody, V domains shown)
VH: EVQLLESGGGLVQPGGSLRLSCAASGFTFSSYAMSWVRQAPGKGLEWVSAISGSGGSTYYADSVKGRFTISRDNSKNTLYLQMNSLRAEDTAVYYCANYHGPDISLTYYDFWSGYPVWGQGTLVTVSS
VL: QSALTQPHSVSESPGKTVTISCTRSSGSIANNHVQWYQQRPGSAPIIVIYEDNQRPSGVPDRFSGSIDSSSNSASLTLSGLKTEDEAAYYCQSYDDNNWVFGGGTKVTVL
notes: also called B12 mAb
B9: H10 monoclonal antibody (antibody, V domains shown)
VH: QVQLVQSGAEVKKPGASVKVSCKASGYTFTSYYMHWVRQAPGQGLEWMGIINPSGGSTSYAQKFQGRVTMTRDTSTSTVYMELSSLRSEDTAVYYCARGTTYDAFDIWGQGTTVSVSS
VL: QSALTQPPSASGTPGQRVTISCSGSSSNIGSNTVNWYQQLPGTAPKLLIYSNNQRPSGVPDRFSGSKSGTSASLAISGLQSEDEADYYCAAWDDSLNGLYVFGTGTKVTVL
notes: also called H10 mAb
B10: H14 monoclonal antibody (antibody, V domains shown)
VH: QVQLVQSGAEVKKPGSSVKVSCKASGGTFSSYAISWVRQAPGQGLEWMGGIIPIFGTANYAQKFQGRVTITADESTSTAYMELSSLRSEDTAVYYCAREATPFMILGAFDIWGQGTMVIVSS
VL: not shown
notes: also called H14 mAb
B11: B02 monoclonal antibody (antibody, V domains shown)
VH: QVELQESGSGLVKPSQTLSLTCAVSGGSISSGGYSWSWIRQPPGKGLEWIGYIYHSGSTYYNPSLKSRVTISVDRSKNQFSLKLSSVTAADTAVYYCARELGYCSSTSCPWGAFDIWGQGTLVSVSS
VL: QAVVTQPPSVSAAPGQKVTISCSGSSSNIGNNYVSWYQQLPGTAPKLLIYDNNKRPSGIPDRFSGSKSGTSATLGITGLQTGDEADYYCGTWDSSLSAVVFGGGTQLTVL
notes: also called B02 mAb
B12: H13 monoclonal antibody (antibody, V domains shown)
VH: QVQLVQSGAEVKKPGASVKVSCKVSGYSFSSHGISWVRQAPGQGLEWMGWISAYNGNTNYAQNLQGRVRMTTDTSTNTAHMELRSLRSDDTAVYYCARDQDEANWNNNYYFDYWGQGTLVTVSS
VL: NFMLTQPHSVSESPGKTVTISCTGSSGSIASKYVQWYQQRPGSAPTSVIYEDNQRPSGVPDRFSGSIDRSSNSASLTISGLKTEDEADYHCQSYDSANRVVFGGGTKVTVL
notes: also called H13 mAb
B13: B08 monoclonal antibody (antibody, V domains shown)
VH: QVQLVQSGGGLVKPGGSLRLSCAASGFTFSSYSMNWVRQAPGKGLEWVSSISSSSSYIYYADSVKGRFTISRDNAKNSLYLQMNSLRAEDTAVYYCARDIALPYYGMDVWGQGTMVTVSS
VL: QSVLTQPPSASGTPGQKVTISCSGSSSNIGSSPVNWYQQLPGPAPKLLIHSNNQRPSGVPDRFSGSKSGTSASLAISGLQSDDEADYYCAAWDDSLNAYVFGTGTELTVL
notes: also called B08 mAb
B14: H09 monoclonal antibody (antibody, V domains shown)
VH: EVQLVQSGAEVKKPGASVKVSCKASGYTFTGYYMHWVRQAPGHGLEWMGWINPNSGGTNYAQKFQGRVTMTRDTSISTAYMELSGLRSDDTAVYYCARDKGAWSGSYPGYNWFDPWGQGTLVTVSS
VL: QAVVTQPPSASGTPGQRVTISCSGSSSTIGTNPVNWYRHLPGTAPKLLIYSNNQRPSGVPDRVSGSKSGTSASLAISGLQSEDEADYYCATLDDSLNGYVFGTGTKVTVL
notes: also called H09 mAb
B15: B17 monoclonal antibody (antibody, V domains shown)
VH: QVELQESGPGLVQPSGTLSLTCAVSGGSMGSSNWWSWVRQPPGKGLEWIGEVYHTGSTNYNPSLRSRVTISVDKSKKQFSLELTSVTAADTAVYFCARDLTVTGSFDIWGQGTMVTVSS
VL: QAVVTQPRSVSGSPGQSVTISCTGSSSDVGAYNYVSWYQQHPGKAPKLIISDVSDWPSGVPDRFSGSKSGNTASLTISGLQADDEADYYCFSYAGNYNWVFGGGTKLTVL
notes: also called B17 mAb
B16: B09 monoclonal antibody (antibody, V domains shown)
VH: QVQLVQSGAEVKKPGSSVKVSCKTSGGTFSSYAISWVRQAPGQGLEWMGGIIPISGTANYAQKLQGRVTITADESTSTAYMELSSLRSEDTAVYYCGRGDYCNGGSCSYTNYYGMDVWGQGTMVTVSS
VL: QAVVTQPPSASGTPGQRSTISCSGGSANIGSNSVHWYQQFPGTAPKLLIFNNNQRPSGVPDRFSGSKSGTSASLAISGLQSEDEADYFCAAWDDSLKGPVFGGGTKVTVL
notes: also called B09 mAb
B17: B13 monoclonal antibody (antibody, V domains shown)
VH: B16 VH with Q1E, T24A, S35T, S55V, L64F, V68L, G97A, N103S, M123T
VL: not shown
notes: also called B13 mAb
B18: H12 monoclonal antibody (antibody, V domains shown)
VH: B16 VH with Q1E, A61P, V93M, G97A, M123T, T125I
VL: QSALTQPPSVSVAPGKTAMITCGGTNIRSQNVHWYQQKPGQAPVLVIYWDSSRPSGIPERISGSNSGSTATLTISRVEAGDEADYYCQVWDATRDHVVFGGGTKVTVL
notes: also called H12 mAb
B19: B10 monoclonal antibody (antibody, V domains shown)
VH: QVQLVQSGAEVKKPGASVKVSCKASGYTFTSYYMHWVRQAPGQGLEWMGIINPSGGSTSYAQKFQGRVTMTRDTSTSTVYMELSSLRSEDTAVYYCARDKAHDSSGYYDAFDIWGQGTTVTVSS
VL: QSALTQPPSASGTPGQRVTISCSGSGSNIGSNTVNWYQQLPGTAPRLLIYRNNQRPSGVPDRFSGSKSGTSASLAISGLESEDEADYFCATWDDSLNDYVFATGTQLTVL
notes: also called B010; B10 mAb
B20: B04 monoclonal antibody (antibody, V domains shown)
VH: EVQLVQSGGGVVQPGRSLRLSCAASGFTFSSYAMHWVRQAPGKGLEWVAVISYDGSNKYYADSVKGRFTISRDNSKNTLYLQMNSLRAEDTAVYYCARESGVSGDYYYYGMDVWGQGTMVTVSS
VL: B2 VL with D1A, V3Q, M4L, S30K, K39R, S65G, Q90H, N93S
notes: also called B04 mAb
B21: B01 monoclonal antibody (antibody, V domains shown)
VH: QVQLVQSGAEVKKPGASVKVSCKASGYSFTSYFIHWVRQAPGQGLEWMGIINPAGGNTNYAQRFQGRVTMTRDTSTSTVYMELSSLRSDDTAVYYCARDKDYGEGAFDLWGQGTMVSVSS
VL: QSALTQPPSVSGAPGQRVTISCTGSSSNIGAGYDVHWYQQLPGTAPKLLIYGNSNRPSGVPDRFSGSKSGTSASLAITGLQAEDEADYYCQSYDSSLSGWVFGGGTKVTVL
notes: also called B01 mAb
B22: H11 monoclonal antibody (antibody, V domains shown)
VH: EVQLVQSGPEVRKPGASVQISCKASGYTFTTSYIHWVRQAPGQGLEWLGLVNPNDGSTTYTQNFQGRVTMTSDTSTSTVYMELSRVTYADTAVYYCAKDIRDYVWGTYRYESAFDIWGQGTTVTVSS
VL: QAVVTQPPSVSVSPGQTASITCSGDKLGDKYVSWYQQKPGQPPILVMYQDNRRPSGIPERFSGSNSGNTATLTISGTQAMDEADYYCQTWDSSTASYVFGTGTKVTVL
notes: also called H11 mAb

Target: T1, recombinant OSMR protein (Sino …)
Test: screening of full-length IgG1 clones on recombinant OSMR extracellular domain

Binder	binding result
B1	binds
B2	binds
B3	binds
B4	binds
B5	binds
B6	binds
B7	binds
B8	binds
B9	binds
B10	binds
B11	binds
B12	binds
B13	binds
B14	binds
B15	binds
B16	binds
B17	binds
B18	binds
B19	binds
B20	binds
B21	binds
B22	binds
